This experiment deals with Myc-tagged dimeric ECDT (Myc-HR-ECDT) (UniProt P12830 731-882). Kind of experiment: co-IP.
Myc-tagged dimeric ECDT (Myc-HR-ECDT), sequence (P12830 731-882): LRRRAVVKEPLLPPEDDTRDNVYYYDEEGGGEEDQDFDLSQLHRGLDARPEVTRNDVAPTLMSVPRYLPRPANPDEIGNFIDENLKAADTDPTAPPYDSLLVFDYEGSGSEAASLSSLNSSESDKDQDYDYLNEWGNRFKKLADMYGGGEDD

B1: p120-catenin, endogenous in HEK293 cells (natural protein, human (endogenous in HEK293), UniProt O60716 1-968, looked up)
chain: MDDSEVESTASILASVKEQEAQFEKLTRALEEERRHVSAQLERVRVSPQDANPLMANGTLTRRHQNGRFVGDADLERQKFSDLKLNGPQDHSHLLYSTIPRMQEPGQIVETYTEEDPEGAMSVVSVETSDDGTTRRTETTVKKVVKTVTTRTVQPVAMGPDGLPVDASSVSNNYIQTLGRDFRKNGNGGPGPYVGQAGTATLPRNFHYPPDGYSRHYEDGYPGGSDNYGSLSRVTRIEERYRPSMEGYRAPSRQDVYGPQPQVRVGGSSVDLHRFHPEPYGLEDDQRSMGYDDLDYGMMSDYGTARRTGTPSDPRRRLRSYEDMIGEEVPSDQYYWAPLAQHERGSLASLDSLRKGGPPPPNWRQPELPEVIAMLGFRLDAVKSNAAAYLQHLCYRNDKVKTDVRKLKGIPVLVGLLDHPKKEVHLGACGALKNISFGRDQDNKIAIKNCDGVPALVRLLRKARDMDLTEVITGTLWNLSSHDSIKMEIVDHALHALTDEVIIPHSGWEREPNEDCKPRHIEWESVLTNTAGCLRNVSSERSEARRKLRECDGLVDALIFIVQAEIGQKDSDSKLVENCVCLLRNLSYQVHREIPQAERYQEAAPNVANNTGPHAASCFGAKKGKDEWFSRGKKPIEDPANDTVDFPKRTSPARGYELLFQPEVVRIYISLLKESKTPAILEASAGAIQNLCAGRWTYGRYIRSALRQEKALSAIADLLTNEHERVVKAASGALRNLAVDARNKELIGKHAIPNLVKNLPGGQQNSSWNFSEDTVISILNTINEVIAENLEAAKKLRETQGIEKLVLINKSGNRSEKEVRAAALVLQTIWGYKELRKPLEKEGWKKSDFQVNLNNASRSQSSHSYDDSTLPLIDRNQKSDKKPDREEIQMSNMGSNTKSLDNNYSTPNERGDHNRTLDRSGDLGDMEPLKGTTPLMQDEGQESLEEELDVLVLDDEGGQVSYPSMQKI
B1: the “fold affinity against the monomer (Myc-ECDT)” value was about 10 fold.
